Measurements as given in patent EP0925358B1.

Target: human CXC Chemokine Receptor 3 (CXCR3) (human) (UniProt P49682)
Assay: cell-based or functional assay

UniProt P49682, sequence (P49682 whole entry, form in doubt): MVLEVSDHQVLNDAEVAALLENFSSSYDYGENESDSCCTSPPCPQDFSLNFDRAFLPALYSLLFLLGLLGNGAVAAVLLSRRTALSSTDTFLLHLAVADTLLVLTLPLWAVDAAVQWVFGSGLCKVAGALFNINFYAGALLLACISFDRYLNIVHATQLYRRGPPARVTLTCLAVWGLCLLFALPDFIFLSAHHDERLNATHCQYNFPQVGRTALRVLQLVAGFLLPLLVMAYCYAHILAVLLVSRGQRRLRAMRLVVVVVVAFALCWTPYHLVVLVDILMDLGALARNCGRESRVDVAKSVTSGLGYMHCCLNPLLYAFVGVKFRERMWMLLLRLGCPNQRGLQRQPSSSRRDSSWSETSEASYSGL

[Ca2+]i changes in IP-10/MigR transfectants, > 100 nM:
ENA78 (epithelial-derived neutrophil-activating peptide 78) (from UniProt P42830 37-114) (ligand)
GCP-2 (granulocyte chemotactic protein-2) (from UniProt P80162 38-114) (ligand)
GROα (from UniProt P09341 35-107) (ligand)
I309 (from UniProt P22362 24-96) (ligand)
IL-8 (from UniProt P10145 28-99) (ligand)
MCP-1 (monocyte chemotactic protein-1) (from UniProt P13500 24-99) (ligand)
MCP-2 (from UniProt P80075 24-99) (ligand)
MCP-3 (from UniProt P80098 24-99) (ligand)
MCP-4 (from UniProt Q99616 24-98) (ligand)
MIP-1α (macrophage inflammatory protein-1α) (from UniProt P10147 24-92) (ligand)
MIP-1β (from UniProt P13236 24-92) (ligand)
NAP-2 (neutrophil-activating protein-2) (from UniProt P02775 59-128) (ligand)
PF4 (platelet factor 4) (from UniProt P02776 32-101) (ligand)
RANTES (regulated on activation, normal T cell expressed and secreted) (from UniProt P13501 24-91) (ligand)
eotaxin (from UniProt P51671 24-97) (ligand)
lymphotactin (from UniProt P47992 22-114) (ligand)
